Target: the molecule itself
Experiment: crystal structure; Form I crystals, P4(3)2(1)2, 3.4 Å; Tn3 resolvase mixed with site III DNA duplex in a 2:1.25 molar ratio; one dimer-site III DNA complex in the asymmetric unit; step: two subunits in the DNA-bound dimer

B1: Tn3 resolvase (wild-type, with SHHHHHH added after the natural C-terminus) (enzyme, transposon Tn3, UniProt P0ADI2 1-185, looked up)
chain: MRIFGYARVSTSQQSLDIQIRALKDAGVKANRIFTDKASGSSTDREGLDLLRMKVEEGDVILVKKLDRLGRDTADMIQLIKEFDAQGVAVRFIDDGISTDGDMGQMVVTILSAVAQAERRRILERTNEGRQEAKLKGIKFGRRRTVDRNVVLTLHQKGTGATEIAHQLSIARSTVYKILEDERAS
notes: Tn3 resolvase, wild type, encoded by the Tn3 transposon; GenBank CAA23885.1; The 7 C-terminal residues (SHHHHHH) were disordered in the crystal structure; also called WT Tn3 resolvase; source: E. coli Rosetta DE3 pLysS from plasmid pSA1121; not shown: SHHHHHH (Ser-His6), C-terminal, kept
binding result: binds

Source: paper PMC9943657, “Structural basis for topological regulation of Tn3 resolvase” (Nucleic Acids Research, 2021)
